Results reported in article PMC8319303, “MacroGreen, a simple tool for detection of ADP-ribosylated proteins” (Communications Biology, 2021).
Changes are numbered by the printed parent chain. Names and notes keep the numbering of the source.

B1: auto-MARylated PARP10 catalytic domain (domain or fragment, UniProt Q53GL7 819-1007, looked up)
chain: NLERLAENTGEFQEVVRAFYDTLDAARSSIRVVRVERVSHPLLQQQYELYRERLLQRCERRPVEQVLYHGTTAPAVPDICAHGFNRSFCGRNATVYGKGVYFARRASLSVQDRYSPPNADGHKAVFVARVLTGDYGQGRRGLRAPPLRGPGHVLLRYDSAVDCICQPSIFVIFHDTQALPTHLITCEHV
modifications: auto-mono-ADP-ribosylated (MARylated) on glutamic and aspartic acid, serine, lysine and arginine side chains; sites not given
notes: PARP10 catalytic domain, construct PARP10 819-1007; also called PARP10 819-1007; source: auto-modified with NAD+
B2: Af1521-c001, wild type Af1521 fused to GFP (other, Archaeoglobus fulgidus, UniProt O28751 1-192, looked up)
chain: MEVLFEAKVGDITLKLAQGDITQYPAKAIVNAANKRLEHGGGVAYAIAKACAGDAGLYTEISKKAMREQFGRDYIDHGEVVVTPAMNLEERGIKYVFHTVGPICSGMWSEELKEKLYKAFLGPLEKAEEMGVESIAFPAVSAGIYGCDLEKVVETFLEAVKNFKGSAVKEVALVIYDRKSAEVALKVFERSL
notes: Archaeoglobus fulgidus macrodomain protein Af1521, full length, wild type; pNIC28 derived vector; also called Af1521-GFP; wild type Af1521-GFP fusion; source: E. coli BL21(DE3)T1R pRARE2, purified (IMAC, SEC); not shown: eGFP, C-terminal, kept
B3: MacroGreen (Af1521-c007), Af1521 K35E,G42E,I144R,Y145R fused to GFP (other, Archaeoglobus fulgidus, UniProt O28751 1-192, looked up)
chain: B2 chain with K35E, G42E, I144R, Y145R
notes: Archaeoglobus fulgidus macrodomain protein Af1521, full length, with K35E, G42E, I144R, Y145R; Synthetic codon-optimised cDNA in a pNIC28 derived vector; also called GFP-fusion quadruple mutant; source: E. coli BL21(DE3)T1R pRARE2, purified (IMAC, SEC); not shown: eGFP, C-terminal, kept

Key:
[1] = target: B3; experiment: SPR; MacroGreen covalently immobilised, auto-MARylated PARP10 catalytic domain flowed over; apparent KD from the kinetics of binding and unbinding; settings: both partners purified
[2] = target: T1, PARylated PARP1 (auto-modified catalytic domain construct) (UniProt P09874 662-1011, auto-poly-ADP-ribosylated (PARylated) predominantly on carboxylic acid side chains; sites not given); experiment: far-Western, overlay or dot blot; overlay in multiwell plates: MAR- or PARylated protein adsorbed to protein binding 96-well plates (MaxiSorp), blocked with 1% BSA, overlaid with the macrodomain-GFP fusion (1 µM in Fig. 2) in TBST pH 7.5 for 5 min at room temperature, washed, GFP fluorescence read; settings: both partners purified
T1 construct: PARP1 catalytic domain construct, PARP1 662-1011; also called PARP1 662-1011; source: auto-modified with 1 mM NAD+
T1 sequence (P09874 662-1011): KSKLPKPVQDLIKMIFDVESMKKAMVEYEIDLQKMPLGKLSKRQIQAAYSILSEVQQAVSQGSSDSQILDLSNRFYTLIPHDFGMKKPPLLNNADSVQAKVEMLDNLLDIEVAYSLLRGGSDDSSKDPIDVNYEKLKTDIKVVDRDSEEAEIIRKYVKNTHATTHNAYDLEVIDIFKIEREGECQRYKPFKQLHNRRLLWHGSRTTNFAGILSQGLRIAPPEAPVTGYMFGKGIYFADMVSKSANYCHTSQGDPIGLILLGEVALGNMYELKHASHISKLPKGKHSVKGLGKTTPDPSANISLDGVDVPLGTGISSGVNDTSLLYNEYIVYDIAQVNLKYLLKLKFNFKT

Row | Binder | Kd [1] [nM] | stoichiometry N [1] | binding result [2]
1 | B1 | 30 | 1 | 
2 | B2 |  |  | binds
3 | B3 |  |  | binds
